The target in experiment [1] is T1, human neutrophil elastase (human, UniProt P08246 30-247, glycans (NAG-NAG-FUC) at N109 and N204, chymotrypsinogen numbering, seen in the crystal).
T1 construct: Purified hNE bought from Elastin Products Company; In the crystal, density is defined for I1 to Q218; also called hNE; HNE
T1 sequence: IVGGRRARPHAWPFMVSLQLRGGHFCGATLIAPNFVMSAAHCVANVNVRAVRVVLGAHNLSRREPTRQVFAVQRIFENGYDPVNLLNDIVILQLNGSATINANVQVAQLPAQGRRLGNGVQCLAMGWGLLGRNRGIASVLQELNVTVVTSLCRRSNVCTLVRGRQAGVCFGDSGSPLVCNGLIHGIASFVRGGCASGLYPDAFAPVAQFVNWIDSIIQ
The experiment can be described thus: BLI (Octet HTX), biotinylated NbE201 on streptavidin sensor, hNE as analyte, global 1:1 fit, N=2. As for the experimental part: FIG. 6. […] On the x-axis, the time in seconds. On the y-axis, the interference signal in nm. A vertical dashed line divides the association step from the dissociation step. […] Each curve (in black) represents measured data (□□) referring to a single concentration of hNE used: 25 nM, 6.25 nM, 3.125 nM, 1.563 nM and 0.753 nM (from top to bottom). In grey, is represented the fitting of the data from which the KD value and kinetic parameters were derived. Data were fitted accordingly to a 1:1 ligand model by using the Data Analysis Octet Software Version 10.0 (Satorius). Independent replicates of the experiment were done (N=2) and the mean (±st. dev.) of the kinetics parameters measured and indicated in Table 2.
(§1) Then, the biosensors were immersed in a solution of hNE at different concentrations ([…]-0.753 nM). Association and dissociation kinetics were measured for 180 s and 300 s respectively, in 10×KB buffer. All the experiments were carried out at 30° C. in 96-wells or 384-wells black-bottom microplates in polypropylene (Greiner Bio-One, Belgium) and with orbital agitation (1500 rpm). The sensorgrams obtained were fitted globally to a 1:1 model to derive the rate constants for association (kₒₙ) and dissociation (koff) and the equilibrium dissociation constant (KD=koff/kₒₙ). […] were carried out. The error on KD was calculated using the following equation: […]

The next experiment concerns the target T2, human cathepsin G (human, UniProt P08311 21-244).
T2 construct: also called hCG; CG
T2 sequence (looked up): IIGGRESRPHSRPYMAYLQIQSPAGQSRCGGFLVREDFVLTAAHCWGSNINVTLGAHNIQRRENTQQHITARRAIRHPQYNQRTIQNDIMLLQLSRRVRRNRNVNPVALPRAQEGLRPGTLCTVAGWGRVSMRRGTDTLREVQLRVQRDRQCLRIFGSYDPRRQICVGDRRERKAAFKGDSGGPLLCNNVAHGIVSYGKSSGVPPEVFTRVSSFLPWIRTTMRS
The experiment can be described thus: BLI, biotinylated NbE201 on streptavidin sensors, protease in solution. As to the method:
(§2) The biosensors were then immersed in a 50 nM solution of a serine protease. The proteases tested were human cathepsin G (hCG), human proteinase 3 (hPR3), mouse pancreatic elastase (mPE), mouse neutrophil elastase (mNE) and porcine pancreatic elastase (pPE). hNE was used a positive control. The association and dissociation were measured for 70 s and 320 s respectively, in kinetic buffer (KB, Sartorius). The experiments were carried out at 30° C. in 384-wells black-bottom microplates in polypropylene (Greiner Bio-One, Belgium) and with orbital agitation (1000 rpm).
A general note: In BLI a coated tip is dipped into the sample, and binding shifts an interference pattern.

Another experiment has as its target T3, human proteinase 3 (human, UniProt P24158 28-248).
T3 construct: also called hPR3; PR3
T3 sequence (looked up): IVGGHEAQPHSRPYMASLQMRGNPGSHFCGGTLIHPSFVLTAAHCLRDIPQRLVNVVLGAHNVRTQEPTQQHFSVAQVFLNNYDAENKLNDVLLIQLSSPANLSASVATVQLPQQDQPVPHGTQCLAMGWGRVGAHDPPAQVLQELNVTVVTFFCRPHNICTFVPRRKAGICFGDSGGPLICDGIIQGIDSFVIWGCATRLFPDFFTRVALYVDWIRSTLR
Described as above. As to the method: as §2

The target of experiment [2] is T4, porcine pancreatic elastase (pig, UniProt P00772 27-266).
T4 construct: also called pPE; PPE
The experiment is described as above. As to the method:
as §2

The target in experiment [3] is T5, mouse neutrophil elastase (mouse, UniProt Q3UP87 29-265, limits assumed).
T5 construct: also called mNE; murine elastase
T5 sequence (looked up): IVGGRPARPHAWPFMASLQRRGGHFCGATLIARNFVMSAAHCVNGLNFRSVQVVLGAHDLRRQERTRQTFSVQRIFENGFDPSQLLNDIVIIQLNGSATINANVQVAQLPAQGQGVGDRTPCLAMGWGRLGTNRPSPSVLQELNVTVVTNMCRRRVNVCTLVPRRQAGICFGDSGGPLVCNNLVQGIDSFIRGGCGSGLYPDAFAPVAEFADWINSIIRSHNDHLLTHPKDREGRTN
The experiment can be described thus: BLI (Octet HTX), NbE201_Cter Biot on streptavidin sensor, mNE as analyte, 1:1 fit, N=1. As to the method: FIG. 9. […] On the x-axis, the time in seconds. On the y-axis, the interference signal in nm. The dashed line separates the association step from the dissociation step. In black, the experimental signal. In grey, the fitting using a 1:1 model. The mNE concentrations tested are 100-50-25-12.5-6.25-3.125 nM, from top to bottom. Association and dissociation kinetics were measured for 300 s and 600 s respectively. The obtained sensorgrams were fitted to a 1:1 model by using the Data Analysis Octet Software Version 10.0 (Sartorius) to derive the rate constants for association (kₒₙ) and dissociation (koff) and the equilibrium dissociation constant (KD=koff/kₒₙ).
as §1

Experiment [4] deals with T1, human neutrophil elastase. Put plainly: BLI, comparison of the values in Table 2.

In general, Kd refers to the constant that tells how readily two partners part at equilibrium. As a reminder, the koff is a measure of how fast the partners let go of each other. By kon is commonly meant the second-order rate constant of association. A lower kon goes with slower complex formation.

T4 sequence (P00772 27-266): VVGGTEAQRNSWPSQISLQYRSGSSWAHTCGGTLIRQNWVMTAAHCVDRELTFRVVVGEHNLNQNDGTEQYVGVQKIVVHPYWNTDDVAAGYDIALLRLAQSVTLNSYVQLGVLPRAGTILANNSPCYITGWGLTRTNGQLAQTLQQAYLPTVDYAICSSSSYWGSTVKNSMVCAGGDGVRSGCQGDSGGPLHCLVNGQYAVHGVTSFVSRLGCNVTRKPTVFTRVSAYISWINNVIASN

B1: biotinylated NbE201 (VHH)
VHH: QVQLQESGGGLVQAGGSLRLSCVVPGRTISLYRMGWFRQAPGKEREFVAGINWSGDMTDYVDSVKGRFTISRDNAKNTVYLEMNSLKPEDTAIYYCTADPKLLPLADSSYGYWGQGTQVTVSS
modifications: C-terminal Cys biotinylated with EZ-Link Maleimide-PEG2-Biotin
notes: Form immobilised on streptavidin sensors in all BLI experiments; It was produced in the pHEN25 vector and biotinylated site-specifically on its C-terminal Cys; also called NbE201_Cter Biot; biotinylated ISVD NbE201
On to B1, for which the Kd in experiment [1] worked out at 1.3 nM; in experiment [3] it was 49 nM. For the same molecule, the koff in experiment [1] is 0.0032 s⁻¹; in experiment [3] it was 0.019 s⁻¹. Further, the kon was found to be 2.6e+06 M⁻¹ s⁻¹ in experiment [1] and 390000 M⁻¹ s⁻¹ in experiment [3]. The binding result (with human cathepsin G; with human proteinase 3; in experiment [2]) was “no binding (tested: 50 nM)” each time. In addition, the “fold affinity relative to mNE” value in experiment [4] is approximately 10 fold.

The record behind these values is US20260209387A1, “SINGLE-DOMAIN ANTIBODY FOR INHIBITION OF NEUTROPHIL ELASTASE ACTIVITY” (UNIVERSITE DE LIEGE, priority 2023, published 2026).
